Laboratory results taken from patent US20200247855A1, “THERAPY AND DIAGNOSTICS” (OXFORD UNIVERSITY INNOVATION LIMITED, priority 2017, published 2020).
Read-outs that look alike come from different tables or passages of the source.

Experiments:
[1] = molecular target: T1, CCL14_HUMAN (Homo sapiens, UniProt Q16627); assay: Biolayer interferometry (BLI) binding
T1 sequence (Q16627 20-93): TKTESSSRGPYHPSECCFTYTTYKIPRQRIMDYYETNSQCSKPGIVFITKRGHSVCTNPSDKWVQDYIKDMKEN
Outline: (§1)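 Binding was measured by biolayer interferometry with the His-tagged tick protein bound to Ni-NTA sensors. A single-concentration screen used chemokine at 300 nM. Chemokines that bound were retested over multiple doses, and Kd was calculated from fitted curves.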

[2] = molecular target: T2, CCL15_HUMAN (Homo sapiens, UniProt Q16663); assay: Biolayer interferometry (BLI) binding
T2 sequence (Q16663 22-113): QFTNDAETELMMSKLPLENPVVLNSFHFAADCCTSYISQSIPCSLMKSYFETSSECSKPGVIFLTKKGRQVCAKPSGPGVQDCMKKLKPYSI
Outline: as §1

[3] = molecular target: T3, CCL16_HUMAN (Homo sapiens, UniProt O15467); assay: Biolayer interferometry (BLI) binding
T3 sequence (O15467 24-120): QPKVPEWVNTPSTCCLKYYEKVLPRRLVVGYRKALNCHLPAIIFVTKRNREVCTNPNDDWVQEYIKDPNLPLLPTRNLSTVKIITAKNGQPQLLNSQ
Outline: as §1

[4] = molecular target: CCL3L1_HUMAN (Homo sapiens, UniProt P16619); assay: Biolayer interferometry (BLI) binding
CCL3L1_HUMAN, sequence (P16619 24-93): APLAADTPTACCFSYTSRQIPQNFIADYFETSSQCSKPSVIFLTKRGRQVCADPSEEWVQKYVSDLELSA
Outline: as §1

[5] = molecular target: T4, CCL3_HUMAN (Homo sapiens, UniProt P10147); assay: Biolayer interferometry (BLI) binding
T4 sequence (P10147 24-92): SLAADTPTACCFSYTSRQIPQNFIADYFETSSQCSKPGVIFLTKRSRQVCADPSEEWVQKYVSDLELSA
Outline: as §1

[6] = molecular target: CCL7_HUMAN (Homo sapiens, UniProt P80098); assay: Biolayer interferometry (BLI) binding
CCL7_HUMAN, sequence (P80098 24-99): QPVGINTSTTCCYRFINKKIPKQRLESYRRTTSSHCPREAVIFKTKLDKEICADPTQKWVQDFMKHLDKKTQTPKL
Outline: as §1

[7] = molecular target: T5, CCL8_HUMAN (Homo sapiens, UniProt P80075); assay: Biolayer interferometry (BLI) binding
T5 sequence (P80075 24-99): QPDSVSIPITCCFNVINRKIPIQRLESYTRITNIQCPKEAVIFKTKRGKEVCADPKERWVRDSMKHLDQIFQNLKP
Outline: as §1

[8] = molecular target: T6, CCL1_HUMAN (Homo sapiens, UniProt P22362); conditions: read-out: Kd, CCL1_HUMAN, previously described evasins; data obtained from publications [20-22,32]; cited from earlier work
T6 sequence (P22362 24-96): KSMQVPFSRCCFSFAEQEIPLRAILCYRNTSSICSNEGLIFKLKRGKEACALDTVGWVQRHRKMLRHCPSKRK

[9] = molecular target: T7, CCL17_HUMAN (Homo sapiens, UniProt Q92583); conditions: read-out: Kd, CCL17_HUMAN, previously described evasins; data obtained from publications [20-22,32]; cited from earlier work
T7 sequence (Q92583 24-94): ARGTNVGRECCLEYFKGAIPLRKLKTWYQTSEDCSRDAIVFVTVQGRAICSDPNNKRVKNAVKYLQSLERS

[10] = molecular target: T8, CCL23_HUMAN (Homo sapiens, UniProt P55773); conditions: read-out: Kd, CCL23_HUMAN, previously described evasins; data obtained from publications [20-22,32]; cited from earlier work
T8 sequence (P55773 22-120): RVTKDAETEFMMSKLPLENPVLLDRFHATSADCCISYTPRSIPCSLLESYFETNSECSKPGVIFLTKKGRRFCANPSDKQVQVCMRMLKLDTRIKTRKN

B1: P672_RHIPU: tick CKBP, Rhipicephalus pulchellus (protein, listed as Rhipicephalus pulchellus)
chain: VCEVSEQEGVGEDNATEDEDYEDFFKPVTCYFANSTVGPLRPPNCTVVCTNNTAWWNDTKSDGGHCYSEYRPEKRTHSREIYNCTIGVCGNGTCIANHTYADCW
B1 showed a Kd [1] of 5.5 nM, a Kd [2] of 32 nM and a Kd [3] of 3.3 nM. For the same molecule, the Kd [4] was 2.7 nM, the Kd [5] was 2.6 nM and the Kd [6] was 16 nM. The Kd ([7]; read-out: Kd for CCL8) was 3.7 nM.

B2: P1243_AMBAM: tick CKBP, Amblyomma americanum; AAM-02 stated identical (protein, listed as Amblyomma americanum)
chain: RNHTEDNSTEYYDYEEARCACPARHLNNTNGTVLKLLGCHYFCNGTLCTAPDGYPCYNLTAQQVRTLTTYPNTSCAVGVCMKGTCVKNGTMEQCFKTP
Molecule B2 has a Kd [1] of 0.816 nM, a Kd [2] of 9.61 nM and a Kd [3] of 0.926 nM. The Kd [4] was 5.05 nM, the Kd [5] was 5.3 nM and the Kd [6] was 8.66 nM. It also gave a Kd ([7]; read-out: Kd, CCL8_HUMAN) of 21.9 nM.

B3: EVASIN4: previously described tick CKBP evasin 4, from Rhipicephalus sanguineus (protein, listed as Rhipicephalus sanguineus)
chain: EVPQMTSSSAPDLEEEDDYTAYAPLTCYFTNSTLGLLAPPNCSVLCNSTTTWFNETSPNNASCLLTVDFLTQDAILQENQPYNCSVGHCDNGTCAGPPRHAQCW
In the case of B3, the Kd [8] is listed as 0.2 nM, the Kd [9] is listed as 0.61 nM and the Kd [10] is listed as 4.43 nM.
